We go through six molecules from patent US20230295324A1 (published 2023).

T1: human OX40 on cells (CHO-K1/hu OX40) (human, UniProt P43489 29-277)
T1 sequence (looked up): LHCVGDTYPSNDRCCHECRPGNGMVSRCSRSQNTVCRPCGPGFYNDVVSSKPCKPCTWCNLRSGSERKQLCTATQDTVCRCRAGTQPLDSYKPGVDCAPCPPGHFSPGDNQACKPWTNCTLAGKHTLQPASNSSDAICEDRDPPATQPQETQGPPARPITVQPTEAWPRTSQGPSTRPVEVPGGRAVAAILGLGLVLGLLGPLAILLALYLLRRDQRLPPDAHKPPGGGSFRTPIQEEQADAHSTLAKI

T2: human OX40 protein (Acro biosystem, #OX0-H5224) (human, UniProt P43489 29-216)
T2 construct: Bought recombinant protein
T2 sequence (looked up): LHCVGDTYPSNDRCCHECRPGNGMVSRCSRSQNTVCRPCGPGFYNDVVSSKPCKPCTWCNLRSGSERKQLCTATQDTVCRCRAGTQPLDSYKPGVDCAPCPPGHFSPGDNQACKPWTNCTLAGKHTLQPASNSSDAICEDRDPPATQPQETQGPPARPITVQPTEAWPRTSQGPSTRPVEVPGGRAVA

B1: PR002063 (antibody, human IgG1, V domains shown)
VH: EVQLLESGGGLVQPGGSLRLSCAASGFTFSSYAMSWVRQAPGRGLEWVSAISGGGGSTFYADSVRGRFTISRDNSKNTLYLQMSSLRAEDTAVYYCANGMTGTTDVDYWGQGTRVTVSS
notes: no light chain; also called anti-OX40 HCAb antibody
B2: PR002066 (antibody, human IgG1, V domains shown)
VH: B1 VH with A23I, R43K, G54R, S84N, R114Q
notes: as for B1
B3: PR002077 (antibody, human IgG1, V domains shown)
VH: B1 VH with R43K, G54R, G56N, S57I, S84N, M100I, R114L
notes: as for B1
B4: PR002065 (antibody, human IgG1, V domains shown)
VH: B1 VH with L5V, R43K, G54R, G56D, S57I, S84N, V93L, T103S, Y108F, R114L
notes: as for B1
B5: PR000327 (antibody, V domains shown)
VH: QVQLVESGGGLVKPGESLRLSCAASGFTFSDYYMYWVRQAPGKGLEWVAIISDGGYYTYYSDIIKGRFTISRDNAKNSLYLQMNSLKAEDTAVYYCARGFPLLRHGAMDYWGQGTLVTVSS
VL: DIQMTQSPSSLSASVGDRVTITCKASQNVDTNVAWYQQKPGQAPKSLIYSASYRYSDVPSRFSGSASGTDFTLTISSVQSEDFATYYCQQYDSYPYTFGGGTKLEIK
B6: PR001331 (antibody, human IgG1, kappa, V domains shown)
VH: QVQLVESGGGVVQPGRSLRLSCSASGFTFINYGMNWVRQAPGKGLEWVAVIWYDGSNKYYADSVRGRFTISRDNSKNTLYLQMNSLRAEDTAVYYCARGPGYGGHSDAFDIWGQGTMVTVSS
VL: DIQMTQSPSSLSASIGDRVTITCRASQSINSYLNWYQQKPGKAPKLLIYTASSLLSGVPSRFSASGSWTDFSLTISSLQPEDFATYYCQQSFSTPYTFGQGTNLEIKR
notes: H2L2 parental antibody against PSMA; also called anti-PSMA H2L2 antibody

Numbering of substitutions follows the chain as printed.

T4 sequence (Q04609 whole entry): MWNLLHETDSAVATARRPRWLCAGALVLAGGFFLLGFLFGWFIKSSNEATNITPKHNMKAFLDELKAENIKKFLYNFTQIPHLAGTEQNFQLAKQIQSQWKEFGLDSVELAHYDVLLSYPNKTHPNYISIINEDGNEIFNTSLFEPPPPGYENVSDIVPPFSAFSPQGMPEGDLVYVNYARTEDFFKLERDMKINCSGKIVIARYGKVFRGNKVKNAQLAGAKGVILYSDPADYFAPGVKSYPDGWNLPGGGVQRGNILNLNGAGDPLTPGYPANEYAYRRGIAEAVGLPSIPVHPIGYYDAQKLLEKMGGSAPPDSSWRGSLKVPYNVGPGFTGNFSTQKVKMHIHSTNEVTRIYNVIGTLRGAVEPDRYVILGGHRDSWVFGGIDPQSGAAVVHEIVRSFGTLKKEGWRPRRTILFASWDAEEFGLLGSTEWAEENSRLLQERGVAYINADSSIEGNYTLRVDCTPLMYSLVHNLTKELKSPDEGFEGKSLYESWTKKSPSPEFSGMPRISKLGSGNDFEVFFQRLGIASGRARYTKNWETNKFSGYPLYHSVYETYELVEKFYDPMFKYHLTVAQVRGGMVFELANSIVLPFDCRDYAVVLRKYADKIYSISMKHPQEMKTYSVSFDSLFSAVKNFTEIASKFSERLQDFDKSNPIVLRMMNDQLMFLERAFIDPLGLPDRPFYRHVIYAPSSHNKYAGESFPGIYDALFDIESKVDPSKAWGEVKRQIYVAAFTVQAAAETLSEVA

The first experiment has as its target T1, human OX40 on cells (CHO-K1/hu OX40). The experiment in a line: cell-based or functional assay.
For the molecule B1, the “EC50, HEK293/OX40/NF-kb luciferase reporter” value is 8.64 nM and the “Maximum fluorescence signal value, HEK293/OX40/NF-kb luciferase reporter” value (“Maximum fluorescence signal value” below) amounted to 150000 luminescence.

Regarding B2, the “EC50, HEK293/OX40/NF-kb luciferase reporter” value was 5.45 nM and the “Maximum fluorescence signal value” value was 147000 luminescence.

In the case of B3, the “EC50, HEK293/OX40/NF-kb luciferase reporter” value stood at 3.51 nM and the “Maximum fluorescence signal value” value amounted to 113000 luminescence.

Turning to B4, the “EC50, HEK293/OX40/NF-kb luciferase reporter” value was found to be 8.55 nM and the “Maximum fluorescence signal value” value was 149000 luminescence.

The target of another experiment is T2, human OX40 protein (Acro biosystem, …). Put plainly: ELISA, coated human OX40 protein. The protocol: (§1) This example is intended to investigate the in vitro binding activity of the anti-OX40 HCAb monoclonal antibodies prepared in Example 1 to human and cynomolgus monkey OX40 proteins. The antibody binding assay at the protein level was performed using a human OX40 protein (Acro biosystem, #OX0-H5224) and a cynomolgus monkey OX40 protein (Novoprotein, #CB17). Briefly, a 384-well plate (PerkinElmer, #6007509) was coated with 1 μg/mL human OX40 protein and a cynomolgus monkey OX40 protein dissolved in PBS at 20 μL/well, and incubated at 4° C. overnight. The next day, the 384-well plate was washed three times with PBS containing 0.05% Tween (MEDICAGO, #09-9410-100), and blocked with PBS containing 2% milk (Bio-Rad, #170-6404) at 37° C. for 1 h. […] The plate was added with a stop buffer (BBI life sciences, #E661006-0200) at 20 μL/well, and read for OD₄₅₀₋₆₅₀ values using a plate reader (Molecular Devices, model: SpectraMax Plus). The values were analyzed with Graphad 8.0 and plotted.
A general note: In an ELISA, binding on a coated surface is turned into a signal by an enzyme label.
For B1, the response was half-maximal at 0.101 nM (EC50) and the “Maximum OD” value worked out at 2.28 OD.

Turning to B2, the EC50 (as a rule, the concentration needed to bring the measured effect to its halfway point) was determined as 0.118 nM and the “Maximum OD” value came to 2.47 OD.

For the molecule B3, the EC50 is 0.146 nM and the “Maximum OD” value stood at 2.67 OD.

Turning to B4, a half-maximal response (EC50) required 0.0639 nM and the “Maximum OD” value amounted to 2.47 OD.

The target in another experiment is T1, human OX40 on cells (CHO-K1/hu OX40). The experiment in a line: cell-based or functional assay. The source holds these as a separate data set.
With B2, the “EC50, IFN-γ release by human T cells with OKT3 and CHO-K1-CD32b cells” value is 0.031 nM; the “Maximum IFN-γ release value” turned out to be 1870.

A further experiment deals with T3, cynomolgus monkey OX40 protein (Novoprotein, #CB17) (cynomolgus monkey).
T3 construct: Bought recombinant protein; also called cyno OX40
The experiment in a line: ELISA, coated cyno OX40 protein. Here is the method: as §1
B1: the EC50 came out at 0.276 nM and the “Maximum OD” value was 2.32 OD.

For the molecule B2, a half-maximal response (EC50) required 0.37 nM and the “Maximum OD” value stood at 2.44 OD.

Consider B3, for which the EC50 is 0.441 nM and the “Maximum OD” value was found to be 2.73 OD.

Turning to B4, the EC50 is 0.103 nM and the “Maximum OD” value is 1.92 OD.

The next experiment deals with T1, human OX40 on cells (CHO-K1/hu OX40). Put plainly: FACS, blocking of biotin-human OX40L on CHO-K1/hu OX40 cells. Here is the method:
Briefly, the CHO-K1/hu OX40 cells were digested and resuspended in an F-12K complete medium, and the cell density was adjusted to 1×10⁶ cells/mL. The cells were seeded in a 96-well V-bottom plate (Corning, #3894) at 100 μL/well, and centrifuged, and then the supernatant was discarded. The test antigen-binding proteins diluted in a 3-fold gradient at concentrations that were 2 times the final concentrations were added at 100 μL/well, and the mixture was well mixed, wherein the antigen-binding protein had the highest final concentration of 100 nM, and a total of 8 concentrations were obtained. […] The cells were incubated at 4° C. for 1 h away from light. Thereafter, the cells were centrifuged at 4° C. for 5 min, and then the supernatant was discarded. […] The cells in each well were rinsed twice with 100 μL of pre-cooled PBS, and centrifuged at 500 g at 4° C. for 5 min, and then the supernatant was discarded. A 1:200 fluorescent secondary antibody PE Streptavidin (BD Biosciences, #554061) was added at 100 μL/well, and the cells were incubated away from light at 4° C. for 30 min. The cells in each well were rinsed twice with 200 μL of pre-cooled PBS, and centrifuged at 500 g at 4° C. for 5 min, and then the supernatant was discarded. Finally, the cells in each well were resuspended in 200 μL of precooled PBS. Fluorescence signal values were read using BD FACS CANTOII, and IC50 was calculated. Inhibition rate %={average MFI of non-blocking control well−MFI value of OX40 antibody}/{(average MFI of non-blocking control well)−average MFI of 100% blocking control well)}×100%.
Take B1: the “Maximum inhibition rate (%)” value came to 17%.

Turning to B2, the IC50 (in general, the concentration that gives 50% inhibition) was 67.6 nM and the “Maximum inhibition rate (%)” value amounted to 58%.

B3: the IC50 came to 41.1 nM and the “Maximum inhibition rate (%)” value worked out at 34%.

As to B4, it took 49.6 nM to reach half-maximal inhibition (IC50) and the “Maximum inhibition rate (%)” value is 44%.

A further experiment has as its target T3, cynomolgus monkey OX40 protein …. The experiment in a line: BLI, antibody on ProA sensor, 1:1 global fit. Here is the method:
(§2) The binding kinetics between the antigen and the antibody was analyzed by the Biolayer Interferometry (BLI) technique using an Octet Red 96e molecular interaction analyzer (Fortebio).
(§3) The association and dissociation signals between the OX40 antibodies and OX40 proteins were recorded by Octet Red 96 in real time. When data analysis was performed using Octet Data Analysis software (Fortebio, version 11.0), 0 nM was used as a reference hole, and reference subtraction was performed; the “1:1 Global fitting” method was selected to fit the data, and the kinetics parameters of the binding of antigens to antigen-binding proteins were calculated, with kon(1/Ms) values, kdis(1/s) values and KD(M) values obtained.
A general note: BLI is a label-free optical method that tracks binding on a fibre tip over time.
As for B1, binding was put at a Kd of 53.4 nM; the koff – broadly, the first-order rate constant of dissociation – was 0.00192 s⁻¹; the kon (in general, a measure of how fast the partners come together) is 36000 M⁻¹ s⁻¹.

Consider B2, for which the Kd (in general, the free concentration of one partner at which half of the binding sites on the other are occupied at equilibrium, for simple one-to-one binding) is 22.7 nM; the koff was found to be 0.00097 s⁻¹; the association rate constant (kon) worked out at 42700 M⁻¹ s⁻¹.

B3: the equilibrium dissociation constant (Kd) was determined as 22.1 nM, the off-rate constant (koff) was 0.000722 s⁻¹ and the kon came to 32700 M⁻¹ s⁻¹.

B4 showed an equilibrium dissociation constant (Kd) of 33.7 nM, a koff of 0.00104 s⁻¹ and a kon of 30800 M⁻¹ s⁻¹.

For the next experiment, the target named is T2, human OX40 protein (Acro biosystem, …). Put plainly: BLI, antibody on ProA sensor, 1:1 global fit. Here is the method: as §2, §3
B1 registered a Kd of 13 nM, an off-rate constant (koff) of 0.000511 s⁻¹ and a kon of 39200 M⁻¹ s⁻¹.

B2 came in with an equilibrium dissociation constant (Kd) of 8.71 nM, a koff of 0.000387 s⁻¹ and an association rate constant (kon) of 44400 M⁻¹ s⁻¹.

Molecule B3 yielded a dissociation constant (Kd) of 10.6 nM, an off-rate constant (koff) of 0.000364 s⁻¹ and a kon of 34300 M⁻¹ s⁻¹.

Take B4: the Kd worked out at 6.79 nM, the koff was found to be 0.000337 s⁻¹ and the on-rate (kon) was 49600 M⁻¹ s⁻¹.

For another experiment, the target named is T1, human OX40 on cells (CHO-K1/hu OX40). Put plainly: FACS, CHO-K1/hu OX40 cells. The protocol: This example is intended to investigate the in vitro binding activity of anti-human OX40 HCAb monoclonal antibodies to human OX40. The antibody binding assay at the cellular level was performed using a stable CHO-K1 cell strain overexpressing human OX40 (CHO-K1/hu OX40). Briefly, the CHO-K1/hu OX40 cells were digested, resuspended in an F12K complete medium and washed once with PBS. The cell density was adjusted to 1×10⁶ cells/mL with PBS. The cells were seeded in a 96-well V-bottom plate (Corning, #3894) at 100 μL/well, and centrifuged, and then the supernatant was discarded. Then, the test antibodies diluted in a 3-fold gradient at concentrations that were 2 times the final concentrations were added at 100 μL/well. The cells were incubated at 4° C. for 1 h away from light. Thereafter, the cells in each well were rinsed twice with 100 μL of pre-cooled PBS, and centrifuged at 500 g at 4° C. for 5 min, and then the supernatant was discarded. […] The plate was incubated away from light at 4° C. for 30 min. The cells in each well were rinsed twice with 100 μL of pre-cooled PBS, and centrifuged at 500 g at 4° C. for 5 min, and then the supernatant was discarded. Finally, the cells in each well were resuspended in 200 μL of pre-cooled PBS, and the fluorescence signal values were read using a BD FACS CANTOII.
A general note: Flow cytometry measures light scatter and fluorescence of single cells or particles in a stream.
For B1, the EC50 was 9 nM and the “Maximum MFI” value came to 2240 MFI.

Turning to B2, the EC50 was found to be 4.67 nM and the “Maximum MFI” value turned out to be 3010 MFI.

As for B3, a half-maximal effect (EC50) was put at 7.22 nM and the “Maximum MFI” value was determined as 3980 MFI.

Regarding B4, a half-maximal response (EC50) required 3.82 nM and the “Maximum MFI” value stood at 2860 MFI.

The next experiment addresses T4, human PSMA on LNCAP cells (human, UniProt Q04609 1-750).
T4 construct: whole, on cells
The experiment in a line: FACS, LNCAP cells (human PSMA). The protocol: This example is intended to investigate the in vitro binding activity of OX40×TAA bispecific antibodies obtained in Example 9 to tumor-associated antigens (TAAs). […] Briefly, those cells were digested, resuspended in a complete medium, and washed with PBS, and the cell density was adjusted to 1×10⁶ cells/ml with PBS. The cells were seeded in a 96-well V-bottom plate (Corning, #3894) at 100 μL/well, and centrifuged, and then the supernatant was discarded. Then, the test antibodies diluted in a 3-fold gradient were added at 100 μL/well. The cells were incubated at 4° C. for 1 h away from light. Thereafter, the cells in each well were rinsed twice with 100 μL of pre-cooled PBS, and centrifuged at 500 g at 4° C. for 5 min, and then the supernatant was discarded. […] The plate was incubated away from light at 4° C. for 30 min. The cells in each well were rinsed twice with 100 μL of pre-cooled PBS, and centrifuged at 500 g at 4° C. for 5 min, and then the supernatant was discarded. Finally, the cells in each well were resuspended in 200 μL of pre-cooled PBS, and the fluorescence signal values were read using NovoCyte flow cytometer (ACEA Biosciences).
For the molecule B5, the half-maximal effective concentration (EC50) is 3.02 nM.

As to B6, the EC50 stood at 2.58 nM.
